Reference: ChEMBL document CHEMBL1150982, “Formation of the Michaelis complex without involvement of the prosthetic group dehydroalanine of histidine ammonialyase” (Bioorg Med Chem Lett, 1997)

Key:
Conditions in all cases: Pseudomonas putida
[1] = substrate: N[C@@H](Cc1c[nH]cn1)C(=O)O; experiment: (§1) The kinetic constant with the compound as substrate of S143A mutant enzyme was determined
[2] = substrate: NC(Cc1[nH]cnc1[N+](=O)[O-])C(=O)O; experiment: as §1
[3] = compound: NC(Cc1[nH]cnc1[N+](=O)[O-])C(=O)O; experiment: The kinetic constant with the compound as substrate of recombinant wild-type Escherichia coli BL21 was determined using L-hisdine as competitive inhibitor
[4] = compound: NC(Cc1[nH]cnc1[N+](=O)[O-])C(=O)O; experiment: The kinetic constant with the compound as substrate of wild-type Pseudomonas ATCC 11299b was determined using L-hisdine as competitive inhibitor
[5] = substrate: N[C@@H](Cc1c[nH]cn1)C(=O)O; experiment: (§2) The kinetic constant with the compound as substrate of S143G mutant enzyme was determined
[6] = substrate: NC(Cc1[nH]cnc1[N+](=O)[O-])C(=O)O; experiment: as §2
[7] = compound: NC(Cc1[nH]cnc1[N+](=O)[O-])C(=O)O; experiment: The kinetic constant with the compound as substrate of HAL mutant S143G was determined using L-hisdine as competitive inhibitor
[8] = substrate: N[C@@H](Cc1c[nH]cn1)C(=O)O; experiment: (§3) The kinetic constant with the compound as substrate of recombinant wild-type HAL enzyme was determined
[9] = substrate: NC(Cc1[nH]cnc1[N+](=O)[O-])C(=O)O; experiment: as §3
[10] = substrate: N[C@@H](Cc1c[nH]cn1)C(=O)O; experiment: (§4) The kinetic constant with the compound as substrate of S143T mutant enzyme was determined
[11] = substrate: NC(Cc1[nH]cnc1[N+](=O)[O-])C(=O)O; experiment: as §4

B1: Histidine ammonia-lyase (Homo sapiens), P42357 (protein)
chain: MPRYTVHVRGEWLAVPCQDAQLTVGWLGREAVRRYIKNKPDNGGFTSVDDAHFLVRRCKGLGLLDNEDRLEVALENNEFVEVVIEGDAMSPDFIPSQPEGVYLYSKYREPEKYIELDGDRLTTEDLVNLGKGRYKIKLTPTAEKRVQKSREVIDSIIKEKTVVYGITTGFGKFARTVIPINKLQELQVNLVRSHSSGVGKPLSPERCRMLLALRINVLAKGYSGISLETLKQVIEMFNASCLPYVPEKGTVGASGDLAPLSHLALGLVGEGKMWSPKSGWADAKYVLEAHGLKPVILKPKEGLALINGTQMITSLGCEAVERASAIARQADIVAALTLEVLKGTTKAFDTDIHALRPHRGQIEVAFRFRSLLDSDHHPSEIAESHRFCDRVQDAYTLRCCPQVHGVVNDTIAFVKNIITTELNSATDNPMVFANRGETVSGGNFHGEYPAKALDYLAIGIHELAAISERRIERLCNPSLSELPAFLVAEGGLNSGFMIAHCTAAALVSENKALCHPSSVDSLSTSAATEDHVSMGGWAARKALRVIEHVEQVLAIELLAACQGIEFLRPLKTTTPLEKVYDLVRSVVRPWIKDRFMAPDIEAAHRLLLEQKVWEVAAPYIEKYRMEHIPESRPLSPTAFSLQFLHKKSTKIPESEDL
[1]
  Km: 7.5 mM
  Vmax: 0.0214 IU mg-1
[2]
  Km: 9.8 mM
  Vmax: 0.87 IU mg-1
[3]
  Km: 5.2 mM
[4]
  Km: 4 mM
[5]
  Km: 5.3 mM
  Vmax: 0.0047 IU mg-1
[6]
  Km: 4 mM
  Vmax: 0.52 IU mg-1
[7]
  Km: 5.3 mM
[8]
  Km: 5.2 mM
  Vmax: 25 IU mg-1
[9]
  Km: 7.7 mM
  Vmax: 0.85 IU mg-1
[10]
  Km: 3.1 mM
  Vmax: 0.00047 IU mg-1
[11]
  Km: 12.8 mM
  Vmax: 0.87 IU mg-1
